# According to the RNAGym collection of RNA variant scans (doi:10.7554/elife.80360):
# B1: Twister Ribozyme (parent)
# chain: AACACUGCCAAUGCCGGUCCCAAGCCCGGAUAAAAGUGGAGGGGGCGG
# Variants of: B1
# Assay: self-cleavage, relative activity (ratio to wild type); higher = more cleavage; co-transcriptional
row,Variant,self-cleavage
1,A10C C26U,0.508
2,A11C,0.906
3,A11G,0.932
4,A10G A30C,0.981
5,A10G A30U,0.984
6,A11C G43A,0.167
7,C9G U12C,0.812
8,C9G U12G,0.492
9,A10C G41C,0.23
10,A10C G41A,0.494
11,A10C G41U,0.653
12,A10G C26U,0.285
13,A10G C26A,0.518
14,A10C U31G,0.737
15,A10U A22C,0.93
16,C9G G48A,0.443
17,C9G G48C,0.511
18,A10G G44C,0.965
19,A10G G44U,1.04
20,A10G G44A,0.881
21,C9G G13C,0.876
22,C9G G13U,0.933
23,C9G G13A,1.07
24,A11C C19U,0.627

row,Variant,self-cleavage
1,A10G A40U,0.157
2,A10G A40C,0.46
3,A10G A40G,0.185
4,C9G U37G,0.327
5,A11C G13A,0.188
6,A11C G13U,0.0589
7,A11C G13C,0.164
8,C9U G48A,0.491
9,C9U G48U,0.646
10,C9U G48C,0.795
11,A11G A30U,0.976
12,A11G A30G,0.674
13,A10U C15U,0.911
14,A10U C15A,0.619
15,A10U C15G,0.062
16,A11G C19U,0.792
17,A11G C19G,0.538
18,A10U G29U,0.939
19,A10G C25G,0.409
20,A10C A32U,0.892
21,A10C A32G,0.971
22,A10U G42U,0.447
23,A10C A30C,0.884
24,A10C A30G,0.969

row,Variant,self-cleavage
1,A10U G45A,0.999
2,A10U G45U,0.871
3,C9U G13U,0.826
4,C9U G28C,0.549
5,A10U G48A,0.959
6,C9U C27A,0.064
7,A10C G13U,0.677
8,C9G G42C,0.199
9,C9G G42A,0.12
10,A11C A30C,0.719
11,A11C A30G,0.739
12,C9U C19G,0.101
13,A10G A22G,0.268
14,A10G A22C,0.818
15,A10G A22U,0.971
16,C9U C15U,0.594
17,C9U C15A,0.22
18,A10G A11G,0.886
19,A11C U37A,0.886
20,A11C U37G,0.742
21,A11C U37C,0.808
22,A10U C46U,0.836
23,A11C A32G,0.788
24,A10C G28C,0.822

row,Variant,self-cleavage
1,A10C G28A,0.841
2,A11C G28C,0.431
3,A11G A22G,0.23
4,C9U G29C,0.242
5,C9U G29U,0.606
6,A10C U18C,0.787
7,C9U A35C,0.636
8,C9U A35G,0.615
9,A10G G45C,0.639
10,C9U A34U,0.477
11,C9U A34G,0.3
12,A10U G39C,0.0863
13,A10G A33G,1.04
14,C9U G42C,0.193
15,C9U G42U,0.102
16,C9G G43A,0.123
17,C9G G43C,0.132
18,A10U G24U,0.119
19,A10G G17A,1.02
20,A10G G17C,0.217
21,A11G A34G,0.819
22,A10U G36U,0.716
23,A10U G36A,0.804
24,A10C G43C,0.201

row,Variant,self-cleavage
1,A10C G43A,0.337
2,A10C G43U,0.482
3,A10C C20U,0.941
4,A10C C20G,0.0778
5,A10G C21A,0.137
6,A10G C21G,0.0634
7,C9U G39C,0.151
8,C9U G39U,0.115
9,A11C A34G,0.713
10,A10C C27G,0.0988
11,A10C C27A,0.673
12,A11G A23U,0.614
13,C9G G24U,0.0888
14,C9G G24C,0.0967
15,A10G G43C,0.262
16,A10G G43A,0.363
17,A11G C25A,0.13
18,A11C C26U,0.137
19,A11G A32U,0.841
20,C9G G41U,0.122
21,C9G G41C,0.145
22,C9U A32G,0.729
23,C9U A11C,0.736
24,A11C C15A,0.24

row,Variant,self-cleavage
1,A10U G38U,0.863
2,A10U U37G,0.602
3,C9U G47C,0.235
4,A11C G16A,0.234
5,A11C G16U,0.0992
6,A11C G45U,0.748
7,C9U G36U,0.164
8,C9U G36A,0.281
9,A10C G42C,0.345
10,A10C G42A,0.31
11,A10C G47C,0.538
12,A10C G47U,0.741
13,A10C A23U,0.664
14,A10C A23C,0.242
15,A10G C46A,0.939
16,A10G C46G,0.971
17,A11G A35C,0.903
18,A10C C19G,0.309
19,A10U A23C,0.182
20,A10U A23G,0.461
21,A10C G36C,0.688
22,A10C G39U,0.148
23,A10G C15A,0.707
24,A10G C15G,0.136

row,Variant,self-cleavage
1,C9U C25A,0.1
2,C9U C25U,0.404
3,A10C G48C,1.03
4,A10U C14U,0.884
5,A10G C27U,1.01
6,C9U G43C,0.151
7,A10G C20U,0.878
8,A10G C20A,0.136
9,A10G C20G,0.183
10,C9U G17A,0.0711
11,A10G U18G,0.0537
12,A10G U18A,0.841
13,A10G C19A,0.472
14,A10G C19U,1.02
15,A10G A34U,0.959
16,A10G A34C,0.498
17,A11C G39C,0.208
18,A11C G39A,0.601
19,A11C G39U,0.214
20,A10G G28C,1.05
21,A10G U37A,0.805
22,A10G U37G,0.89
23,A10G U37C,0.946
